One block for each binder: values may come before it.
What was measured:
human 5T4 on cells [1] = target: T1, human 5T4 on cells (human, UniProt Q13641 32-420); assay: flow cytometry, TF-1 cells, PE goat anti-human Fc
T1 construct: also called TPBG; hu5T4
T1 sequence: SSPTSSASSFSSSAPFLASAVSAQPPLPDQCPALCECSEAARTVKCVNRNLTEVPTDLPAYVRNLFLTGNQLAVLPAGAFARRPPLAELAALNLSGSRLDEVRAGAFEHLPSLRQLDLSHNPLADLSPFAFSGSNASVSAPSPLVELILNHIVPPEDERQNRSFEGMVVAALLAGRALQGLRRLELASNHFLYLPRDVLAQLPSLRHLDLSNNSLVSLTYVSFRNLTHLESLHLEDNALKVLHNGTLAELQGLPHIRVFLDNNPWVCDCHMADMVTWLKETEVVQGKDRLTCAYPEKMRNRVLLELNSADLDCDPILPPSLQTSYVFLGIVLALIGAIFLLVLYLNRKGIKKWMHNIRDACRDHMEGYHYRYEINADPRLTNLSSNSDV
Procedure: A 3-fold titration of ALG.APV-210 construct (ranging from 100 nM to 0.14 nM) was incubated with the human 5T4-expressing cell lines for 40 minutes in FACS buffer at 4° C., washed 3 times, and detected with PE-labeled, goat-anti-human Fc secondary antibody (Jackson ImmunoResearch). Binding of ALG.APV-210 was detected by flow cytometry. All samples were run in duplicates. Nonlinear regression analysis to determine EC₅₀ values was performed in GraphPad Prism 6® graphing and statistics software.

human 5T4 on cells [2] = target: T1, human 5T4 on cells; assay: flow cytometry, JAR cells, streptavidin-PE, normalized MFI of 2 pooled experiments
Procedure: Prior to the FACS staining, all cell lines were characterized for their 5T4 expression levels using a receptor density kit (Quantum Simply Cellular, anti-human IgG, Bangs Laboratories, Inc). Adherent cell lines were cultured according to their supplier's instructions and were harvested from their cell culture flasks using Trypsin/EDTA, counted in R10 medium in a Burker chamber, and diluted in FACS buffer (PBS+0.5% BSA, 0.05% NaN₃) to a concentration of 4×10⁶ cells/mL. 50 μL (0.20×10⁶) of cell solution was added to a 96-well FACS staining plate (Falcon #351190). Cells were incubated for 20 min in 4° C. with 50 μL of the biotinylated ALG.APV-210 (2× final concentration). The antibodies were added in a serial dilution starting at 20 μg/mL titrating down in a 12 step ½ dilution down to 0.010 μg/mL. Following 2× washing with FACS buffer, cells were incubated for 30 min in 4° C. with 100 μL of a secondary antibody (streptavidin-PE, BD #554061, diluted 1/500). […] Cells were analysed for ALG.APV-210 binding using flow cytometry (FACSVerse) by gating on single cells. MFI values (secondary antibody only subtracted) from 1 out of 2 independent experiments, as well as normalized data and EC₅₀-values of pooled data from 2 experiments were determined and plotted using GraphPad Prism 7, non-linear regression log (agonist) vs. normalized response—variable slope.

[3] = target: T2, cynomolgus CD137 on cells (cynomolgus macaque, UniProt A9YYE7 24-254); assay: flow cytometry, percentage of CD8 T cells (gated from CD3-stimulated cynomolgus PBMC) bound by the biotinylated antibody, exp 1, n=3 donors
T2 construct: whole, on cells; also called CHO-K1/cynomolgus CD137 cell line; cynomolgus monkey CD137 on CD3-stimulated primary CD8 T cells
Procedure: Following 48 h of incubation with or without CD3, human and cynomolgus PBMC were harvested, pooled, recounted and diluted in FACS buffer (PBS+0.5% BSA, 0.05% NaN₃) to a concentration of 5×10⁶ cells/mL. 50 μL (0.25×10⁶ cells) of cell solution was added to a 96-well FACS staining plate (Falcon #351190). Following 10 min of Fc-blocking in RT using Beriglobin (hIgG, 200 μg/mL), cells were washed in FACS buffer and then incubated for 1 h in 4° C. with 100 μL of the biotinylated ALG.APV-210 or negative control. The antibodies were added in a serial dilution starting either at 5 μg/mL titrating down in a 12 step ⅓ dilution down to […] (exp 1) or 1 μg/mL titrating down in a 12 step ½ dilution down to 0.0005 μg/mL (exp 2). […] Cells were analysed for ALG.APV-210 binding using flow cytometry by gating on viable, single cells expressing CD3 and CD8. MFI values (FMO subtracted) from 2 independent experiments as well as normalized pooled data from 2 experiments and EC₅₀-values were determined and plotted using GraphPad Prism 7, non-linear regression log (agonist) vs. normalized response—variable slope, n=6 donors/group.

T2 sequence (A9YYE7 entry or part of it): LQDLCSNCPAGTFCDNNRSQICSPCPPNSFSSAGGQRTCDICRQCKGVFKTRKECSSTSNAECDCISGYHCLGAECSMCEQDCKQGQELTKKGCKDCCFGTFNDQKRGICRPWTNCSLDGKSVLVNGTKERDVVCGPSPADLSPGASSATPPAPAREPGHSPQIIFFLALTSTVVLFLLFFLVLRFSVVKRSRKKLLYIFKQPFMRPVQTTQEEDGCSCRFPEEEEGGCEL

EC50 (human 5T4 on cells [1]): 71 nM
B1: ALG.APV-210 (bispecific antibody)
chain: EVQLLESGGGLVQPGGSLRLSCAASGFTFSHGSMYWVRQAPGKGLEWVSSISSGSGSTYYADSVKGRFTISHDNSKNTLYLQMNSLRAEDTAVYYCARSSYYGSYYSIDYWGQGTLVTVSSGGGGSGGGGSGGGGSGGGGSDIQMTQSPSSLSASVGDRVTITCRASQSISSYLNWYQQKPGKAPKLLIYAASSLQSGVPSRFSGSGSGTDFTLTISSLQPEDFATYYCQQYYDNLPTFGQGTKLEIKEPKSSDKTHTCPPCPAPEAAGAPSVFLFPPKPKDTLMISRTPEVTCVVVDVSHEDPEVKFNWYVDGVEVHNAKTKPREEQYNSTYRVVSVLTVLHQDWLNGKEYKCAVSNKALPAPIEKTISKAKGQPREPQVYTLPPSRDELTKNQVSLTCLVKGFYPSDIAVEWESNGQPENNYKTTPPVLDSDGSFFLYSKLTVDKSRWQQGNVFSCSVMHEALHNHYTQKSLSLSPGSGGGGSGGGGSGGGGSPSEVQLLESGGGLVQPGGSLRLSCAASGFTFSSYAMSWVRQAPGKCLEWVSAISGSGGSTYYADSVKGRFTISRDNSKNTLYLQMNSLRAEDTAVYYCARYYGGYYSAWMDYWGQGTLVTVSSGGGGSGGGGSGGGGSGGGGSDIQMTQSPSSLSASVGDRVTITCRASQSISSFLNWYQQKPGKAPKLLIYAASSLQSGVPSRFSGSGSGTDFTLTISSLQPEDSATYYCQQTYGYLHTFGCGTKLEIKR
notes: Optimized ADAPTIR scFv-Fc-scFv homodimer with stabilizing disulfide in the 1210 scFv; also called 5T4-CD137 bispecific antibody

B2: biotinylated ALG.APV-210 (bispecific antibody)
chain: B1 chain
notes: also called ALG.APV-210 (biotinylated for FACS detection)
EC50 (human 5T4 on cells [2]): 9 nM | EC50 (read off the curve) [3]: ~0.02 nM
